Laboratory results published in patent publication US20230050846A1, “TREATMENT OF HEPATIC AND CARDIOVASCULAR DISORDERS” (LIFESEARCH, priority 2019, published 2023).

Molecular target: T1, human F1Fo-ATPase (Homo sapiens, UniProt P06576)
T1 construct: Human F1Fo-ATPase was purified from HepG2 cells by immunocapture; endogenous in cells; host or cells: HepG2 cells; complex isolated by immunocapture with anti-ATP synthase antibody 12F4AD8AF8 (#ab109867, Abcam)
Assay: F1-ATPase activity assay (NADH-coupled, purified enzyme)
Format: biochemical
Settings: 1 μM
Description: The mature human IF1 protein (SEQ ID NO: 5) was chemically synthesized by GenScript (Piscataway, N.J., USA) at >80% purity. The peptides derived from the mature human IF1 sequence (IF1-1-60, IF1-10-56, IF1-10-47) were produced by BachemAG (Bubendorf, Switzerland) with >90% purity.
Human F1Fo-ATPase was purified from HepG2 cells by immunocapture using mouse monoclonal anti-ATP synthase antibody (12F4AD8AF8, #ab109867, Abcam) according to manufacturer's instructions.
Measurement of F1-ATPase activity was assayed as previously described. Briefly, 10 μg of F1Fo-ATPase was prepared into 50 μL of activity assay buffer (10 mM HEPES, 150 mM NaCl, 5 mM KCl, 5 mM MgCl2, 0.5 mM phosphoenolpyruvate, 250 μM NADH, 100 μM ATP, 20 U lactate dehydrogenase, 120 U pyruvate kinase). The mixture was incubated at 37° C. for 30 min. Then the F1-ATPase activity was measured in a 96-well microplate by adding 5 μL of the mixture (1 μg of F1Fo-ATPase per point) per well to 200 μL of activity assay buffer at 37° C., and by adding 5 μL of buffer with or without peptide (1 μM each). The reduction in the absorbance of NADH was measured at 340 nm for 5 min with a Varioskan™ Flash Multimode Reader (Thermo Fisher Scientific). A slope was calculated for each well and the results expressed as a percentage of the control slope.

B1: IF1: mature human IF1 protein (SEQ ID NO: 5), chemically synthesized, natural inhibitor of F1-ATPase (protein, listed as Homo sapiens)
chain: GSDQSENVDRGAGSIREAGGAFGKREQAEEERYFRAQSREQLAALKKHHEEEIVHHKKEIERLQKEIERHKQKIKMLKHDD
  inhibition of F1-ATPase activity as compared to control: 96%
